Columns and labels:
[1] = molecular target: recombinant lectin domain of FimH with FLAG tag (rFimHLD-FLAG), P08191; test: western blot quantification of rFimHLD-FLAG bound to rPPAP-HA; settings: chain shown with the change; n = 3 biological replicates; parent: est. 1.0; read off a plot
[2] = molecular target: full-length FimH adhesin on live WT UPEC UTI89 bacteria, P08191; test: binding array (rPPAP bound to glass slide, incubated with live bacteria); settings: chain shown with the change, n = 3 biological replicates
Sequence of full-length FimH adhesin on live WT UPEC UTI89 bacteria, P08191 (P08191 22-300): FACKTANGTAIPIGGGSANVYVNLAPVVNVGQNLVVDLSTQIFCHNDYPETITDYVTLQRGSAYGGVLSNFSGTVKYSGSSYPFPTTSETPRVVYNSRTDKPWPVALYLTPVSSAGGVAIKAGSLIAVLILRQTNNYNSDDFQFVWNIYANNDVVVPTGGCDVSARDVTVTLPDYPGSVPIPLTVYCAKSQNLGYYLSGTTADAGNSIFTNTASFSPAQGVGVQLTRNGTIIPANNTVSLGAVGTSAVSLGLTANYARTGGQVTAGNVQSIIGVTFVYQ

Sequence of recombinant lectin domain of FimH with FLAG tag (rFimHLD-FLAG), P08191 (P08191 22-156): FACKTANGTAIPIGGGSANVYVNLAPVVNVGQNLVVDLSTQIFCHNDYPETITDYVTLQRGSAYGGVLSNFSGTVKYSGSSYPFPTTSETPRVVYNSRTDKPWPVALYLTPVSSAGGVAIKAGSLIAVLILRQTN

Binder	ratio to parent [1]	response (bacteria per field) ([2]; with D-mannose, parent: est. 18, read off a plot)	response (bacteria per field) ([2]; without D-mannose, parent: est. 66, read off a plot)
HA-tagged PPAP recombinant protein, isoform 2 (membrane protein), wild type (rPPAP-HA WT), P15309-2 N94A; N220A; N333A (protein) KELKFVTLVFRHGDRSPIDTFPTDPIKESSWPQGFGQLTQLGMEQHYELGEYIRKRYRKFLAESYKHEQVYIRSTDVDRTLMSAMTNLAALFPPEGVSIWNPILLWQPIPVHTVPLSEDQLLYLPFRNCPRFQELESETLKSEEFQKRLHPYKDFIATLGKLSGLHGQDLFGIWSKVYDPLYCESVHAFTLPSWATEDTMTKLRELSELSLLSLYGIHKQKEKSRLQGGVLVNEILNHMKRATQIPSYKKLIMYSAHDTTVSGLQMALDVYNGLLPPYASCHLTELYFEKGEYFVEMYYRAETQHEPYPLMLPGCSPSCPLERFAELVGPVIPQDWSTECMTTNSHQVLKVIFAVAFCLISAVLMVLLFIHIRRGLCWQRESYGNI	0.36	13	19
HA-tagged PPAP recombinant protein, isoform 2 (membrane protein), wild type (rPPAP-HA WT), P15309-2 N220A (protein) KELKFVTLVFRHGDRSPIDTFPTDPIKESSWPQGFGQLTQLGMEQHYELGEYIRKRYRKFLNESYKHEQVYIRSTDVDRTLMSAMTNLAALFPPEGVSIWNPILLWQPIPVHTVPLSEDQLLYLPFRNCPRFQELESETLKSEEFQKRLHPYKDFIATLGKLSGLHGQDLFGIWSKVYDPLYCESVHAFTLPSWATEDTMTKLRELSELSLLSLYGIHKQKEKSRLQGGVLVNEILNHMKRATQIPSYKKLIMYSAHDTTVSGLQMALDVYNGLLPPYASCHLTELYFEKGEYFVEMYYRNETQHEPYPLMLPGCSPSCPLERFAELVGPVIPQDWSTECMTTNSHQVLKVIFAVAFCLISAVLMVLLFIHIRRGLCWQRESYGNI	0.68	–	–
HA-tagged PPAP recombinant protein, isoform 2 (membrane protein), wild type (rPPAP-HA WT), P15309-2 N94A (protein) KELKFVTLVFRHGDRSPIDTFPTDPIKESSWPQGFGQLTQLGMEQHYELGEYIRKRYRKFLAESYKHEQVYIRSTDVDRTLMSAMTNLAALFPPEGVSIWNPILLWQPIPVHTVPLSEDQLLYLPFRNCPRFQELESETLKSEEFQKRLHPYKDFIATLGKLSGLHGQDLFGIWSKVYDPLYCESVHNFTLPSWATEDTMTKLRELSELSLLSLYGIHKQKEKSRLQGGVLVNEILNHMKRATQIPSYKKLIMYSAHDTTVSGLQMALDVYNGLLPPYASCHLTELYFEKGEYFVEMYYRNETQHEPYPLMLPGCSPSCPLERFAELVGPVIPQDWSTECMTTNSHQVLKVIFAVAFCLISAVLMVLLFIHIRRGLCWQRESYGNI	0.78	–	–
HA-tagged PPAP recombinant protein, isoform 2 (membrane protein), wild type (rPPAP-HA WT), P15309-2 N333A (protein) KELKFVTLVFRHGDRSPIDTFPTDPIKESSWPQGFGQLTQLGMEQHYELGEYIRKRYRKFLNESYKHEQVYIRSTDVDRTLMSAMTNLAALFPPEGVSIWNPILLWQPIPVHTVPLSEDQLLYLPFRNCPRFQELESETLKSEEFQKRLHPYKDFIATLGKLSGLHGQDLFGIWSKVYDPLYCESVHNFTLPSWATEDTMTKLRELSELSLLSLYGIHKQKEKSRLQGGVLVNEILNHMKRATQIPSYKKLIMYSAHDTTVSGLQMALDVYNGLLPPYASCHLTELYFEKGEYFVEMYYRAETQHEPYPLMLPGCSPSCPLERFAELVGPVIPQDWSTECMTTNSHQVLKVIFAVAFCLISAVLMVLLFIHIRRGLCWQRESYGNI	0.6	–	–
HA-tagged PPAP recombinant protein, isoform 2 (membrane protein), wild type (rPPAP-HA WT), P15309-2 N220A; N333A (protein) KELKFVTLVFRHGDRSPIDTFPTDPIKESSWPQGFGQLTQLGMEQHYELGEYIRKRYRKFLNESYKHEQVYIRSTDVDRTLMSAMTNLAALFPPEGVSIWNPILLWQPIPVHTVPLSEDQLLYLPFRNCPRFQELESETLKSEEFQKRLHPYKDFIATLGKLSGLHGQDLFGIWSKVYDPLYCESVHAFTLPSWATEDTMTKLRELSELSLLSLYGIHKQKEKSRLQGGVLVNEILNHMKRATQIPSYKKLIMYSAHDTTVSGLQMALDVYNGLLPPYASCHLTELYFEKGEYFVEMYYRAETQHEPYPLMLPGCSPSCPLERFAELVGPVIPQDWSTECMTTNSHQVLKVIFAVAFCLISAVLMVLLFIHIRRGLCWQRESYGNI	0.25	–	–
HA-tagged PPAP recombinant protein, isoform 2 (membrane protein), wild type (rPPAP-HA WT), P15309-2 N94A; N333A (protein) MRAAPLLLARAASLSLGFLFLLFFWLDRSVLAKELKFVTLVFRHGDRSPIDTFPTDPIKESSWPQGFGQLTQLGMEQHYELGEYIRKRYRKFLAESYKHEQVYIRSTDVDRTLMSAMTNLAALFPPEGVSIWNPILLWQPIPVHTVPLSEDQLLYLPFRNCPRFQELESETLKSEEFQKRLHPYKDFIATLGKLSGLHGQDLFGIWSKVYDPLYCESVHNFTLPSWATEDTMTKLRELSELSLLSLYGIHKQKEKSRLQGGVLVNEILNHMKRATQIPSYKKLIMYSAHDTTVSGLQMALDVYNGLLPPYASCHLTELYFEKGEYFVEMYYRAETQHEPYPLMLPGCSPSCPLERFAELVGPVIPQDWSTECMTTNSHQGTEDSTD	0.5	–	–
HA-tagged PPAP recombinant protein, isoform 2 (membrane protein), wild type (rPPAP-HA WT), P15309-2 N94A; N220A (protein) MRAAPLLLARAASLSLGFLFLLFFWLDRSVLAKELKFVTLVFRHGDRSPIDTFPTDPIKESSWPQGFGQLTQLGMEQHYELGEYIRKRYRKFLAESYKHEQVYIRSTDVDRTLMSAMTNLAALFPPEGVSIWNPILLWQPIPVHTVPLSEDQLLYLPFRNCPRFQELESETLKSEEFQKRLHPYKDFIATLGKLSGLHGQDLFGIWSKVYDPLYCESVHAFTLPSWATEDTMTKLRELSELSLLSLYGIHKQKEKSRLQGGVLVNEILNHMKRATQIPSYKKLIMYSAHDTTVSGLQMALDVYNGLLPPYASCHLTELYFEKGEYFVEMYYRNETQHEPYPLMLPGCSPSCPLERFAELVGPVIPQDWSTECMTTNSHQGTEDSTD	0.53	–	–

— article PMC12872464
